According to article PMC4007762:

Tests used:
Details in all cases: reference: wild-type YFP-p120-1A; sites Y335
[1] = molecular target: cortactin (UniProt Q14247); experiment: anti-YFP immunoprecipitation, cortactin blot
[2] = molecular target: VAV2 (endogenous) (UniProt P52735); experiment: anti-YFP immunoprecipitation, VAV2 blot
[3] = molecular target: E-cadherin (UniProt P12830); experiment: anti-YFP immunoprecipitation, E-cadherin blot

p120-1A (transfected YFP- or HA-tagged) (from UniProt P30999) Y335F
binding against the reference [1]: weaker
binding against the reference [2]: weaker
binding against the reference [3]: stronger
